Test results reported in patent US20180002425A1.

Assays:
[1] = molecular target: TpoR-IL6ST chimeric receptor on HEK293T SIE-bla reporter cells (clone CR2-9) (human) (UniProt P40238); assay: cell-based or functional assay
[2] = molecular target: wild-type human TpoR on Ba/F3-hMpl cells (human) (UniProt P40238); assay: cell-based or functional assay
[3] = molecular target: granulocyte colony stimulating factor receptor (UniProt Q99062)
Chain of granulocyte colony stimulating factor receptor (Q99062 25-836 limits assumed): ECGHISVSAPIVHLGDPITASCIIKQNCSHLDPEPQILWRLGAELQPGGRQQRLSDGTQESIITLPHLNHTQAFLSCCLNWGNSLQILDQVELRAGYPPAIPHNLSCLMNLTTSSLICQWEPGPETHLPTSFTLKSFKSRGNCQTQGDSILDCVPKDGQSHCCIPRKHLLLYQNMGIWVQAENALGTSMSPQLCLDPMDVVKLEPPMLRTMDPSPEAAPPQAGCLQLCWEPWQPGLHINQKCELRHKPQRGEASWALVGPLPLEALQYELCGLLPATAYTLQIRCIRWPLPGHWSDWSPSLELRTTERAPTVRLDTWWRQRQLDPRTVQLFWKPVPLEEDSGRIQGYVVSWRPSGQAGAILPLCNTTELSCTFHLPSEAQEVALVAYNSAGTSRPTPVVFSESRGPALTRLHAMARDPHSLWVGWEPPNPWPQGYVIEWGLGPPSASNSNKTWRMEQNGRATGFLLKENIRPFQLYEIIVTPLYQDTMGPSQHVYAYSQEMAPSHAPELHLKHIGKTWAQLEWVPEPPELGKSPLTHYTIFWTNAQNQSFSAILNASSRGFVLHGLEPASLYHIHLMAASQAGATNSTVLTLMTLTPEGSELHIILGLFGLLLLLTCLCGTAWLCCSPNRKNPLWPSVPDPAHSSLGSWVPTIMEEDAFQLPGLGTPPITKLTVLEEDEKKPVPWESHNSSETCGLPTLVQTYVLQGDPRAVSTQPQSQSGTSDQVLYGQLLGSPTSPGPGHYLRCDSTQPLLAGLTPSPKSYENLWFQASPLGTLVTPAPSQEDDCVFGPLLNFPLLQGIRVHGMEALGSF

Thrombopoietin (from UniProt P40225 22-353) (ligand)
EC50, short-term fluorescence (FRET beta-lactamase) reporter assay [1]: 0.02 nM
EC50, long-term proliferation assay (MTS) of Ba/F3-hMPL cells [2]: 0.07 nM

granulocyte colony stimulating factor (from UniProt P09919 31-204) (ligand)
Responsive Population (fraction of reporter cells in the gate, Pacific Blue-A against AmCyan-A, FRET beta-lactamase reporter; unit not given) [3]: 84.2
